Assay results published in patent US20210115143A1.

How the values were obtained:
[1] = molecular target: CD16a receptor (Fc gamma receptor) (UniProt P08637); test: method not stated
[2] = molecular target: CD32a receptor (Fc gamma receptor) (UniProt P12318); test: method not stated
[3] = molecular target: human PD-L1 on primary human cells in the dendritic cell / CD4+ T cell mixed lymphocyte reaction (human) (UniProt Q9NZQ7); test: cell-based or functional assay
[4] = molecular target: PD-L1-His tagged, human recombinant, HEK293-derived, Phe19-Thr239 (R&D systems Cat #9049-B7-100) (human) (UniProt Q9NZQ7); test: SPR, captured antibody, PD-L1-His in solution
Chain of PD-L1-His tagged, human recombinant, HEK293-derived, Phe19-Thr239 (R&D systems Cat #9049-B7-100) (human) (Q9NZQ7 19-239 limits assumed): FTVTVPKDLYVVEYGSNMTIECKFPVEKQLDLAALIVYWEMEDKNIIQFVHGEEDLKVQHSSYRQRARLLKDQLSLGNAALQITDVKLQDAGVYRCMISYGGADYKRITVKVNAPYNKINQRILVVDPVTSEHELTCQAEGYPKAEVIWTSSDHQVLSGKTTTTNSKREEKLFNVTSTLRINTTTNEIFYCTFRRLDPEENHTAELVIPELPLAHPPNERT

C1q (Sigma, Cat #C1740) = C1q (Sigma, Cat #C1740) (UniProt P02745); test: ELISA: antibody coated at 0-25 µg/mL, C1q at 2 µg/mL, anti-C1q-HRP
Chain of C1q (Sigma, Cat #C1740) (P02745 23-245 limits assumed, chain 1 of 3): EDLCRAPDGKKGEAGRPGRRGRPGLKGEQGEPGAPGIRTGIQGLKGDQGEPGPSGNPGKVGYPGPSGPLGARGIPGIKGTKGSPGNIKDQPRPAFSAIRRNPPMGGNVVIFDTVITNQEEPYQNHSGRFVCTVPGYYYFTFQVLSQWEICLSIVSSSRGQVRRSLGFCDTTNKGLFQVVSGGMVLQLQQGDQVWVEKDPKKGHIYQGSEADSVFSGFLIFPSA
Chain of C1q (Sigma, Cat #C1740) (P02746 28-253 limits assumed, chain 2 of 3, further chain): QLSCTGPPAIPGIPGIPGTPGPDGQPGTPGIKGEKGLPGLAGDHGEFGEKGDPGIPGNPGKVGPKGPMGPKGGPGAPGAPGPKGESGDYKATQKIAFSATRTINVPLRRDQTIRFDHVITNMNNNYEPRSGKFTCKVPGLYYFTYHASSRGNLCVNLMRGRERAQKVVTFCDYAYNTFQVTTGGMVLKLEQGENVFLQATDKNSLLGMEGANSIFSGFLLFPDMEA
Chain of C1q (Sigma, Cat #C1740) (P02747 29-245 limits assumed, chain 3 of 3, further chain): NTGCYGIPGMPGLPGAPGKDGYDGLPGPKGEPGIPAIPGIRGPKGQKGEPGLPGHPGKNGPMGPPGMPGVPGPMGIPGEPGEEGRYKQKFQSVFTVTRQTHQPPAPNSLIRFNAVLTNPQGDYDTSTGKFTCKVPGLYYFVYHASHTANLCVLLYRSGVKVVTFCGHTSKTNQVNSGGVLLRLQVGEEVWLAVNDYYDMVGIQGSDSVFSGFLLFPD

[5] = molecular target: PD-L1-Fc, human IgG Fc fusion protein, human recombinant, HEK293-derived, Phe19-Thr239 (R&D systems Cat #156-B7-100) (human) (UniProt Q9NZQ7); test: SPR (Reichert), PD-L1-Fc immobilized, antibody in solution, 1:1 model, 25 C
Chain of PD-L1-Fc, human IgG Fc fusion protein, human recombinant, HEK293-derived, Phe19-Thr239 (R&D systems Cat #156-B7-100) (human) (Q9NZQ7 19-239 limits assumed): as the sequence (Q9NZQ7 19-239 limits assumed) above

[6] = molecular target: PD-L1-His tagged, human recombinant, HEK293-derived, Phe19-Thr239 (R&D systems Cat #9049-B7-100) (human) (UniProt Q9NZQ7); test: SPR (Reichert), antibody immobilized directly, PD-L1-His in solution, 1:1 model, 25 C
[7] = molecular target: PD-L1-His tagged, human recombinant, HEK293-derived, Phe19-Thr239 (R&D systems Cat #9049-B7-100) (human) (UniProt Q9NZQ7); test: SPR (Reichert), antibody captured by immobilized anti-human IgG, PD-L1-His in solution, 1:1 model, 25 C

Chain of human PD-L1 on primary human cells in the dendritic cell / CD4+ T cell mixed lymphocyte reaction (human) (Q9NZQ7 19-290): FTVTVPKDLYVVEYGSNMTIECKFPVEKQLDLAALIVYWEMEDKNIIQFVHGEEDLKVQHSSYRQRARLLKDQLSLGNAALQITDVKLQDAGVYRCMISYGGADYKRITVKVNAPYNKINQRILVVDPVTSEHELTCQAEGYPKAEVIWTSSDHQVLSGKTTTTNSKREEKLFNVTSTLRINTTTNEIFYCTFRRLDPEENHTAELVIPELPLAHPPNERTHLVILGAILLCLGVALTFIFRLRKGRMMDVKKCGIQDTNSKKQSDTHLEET
Chain of CD16a receptor (Fc gamma receptor) (P08637 17-208 limits assumed): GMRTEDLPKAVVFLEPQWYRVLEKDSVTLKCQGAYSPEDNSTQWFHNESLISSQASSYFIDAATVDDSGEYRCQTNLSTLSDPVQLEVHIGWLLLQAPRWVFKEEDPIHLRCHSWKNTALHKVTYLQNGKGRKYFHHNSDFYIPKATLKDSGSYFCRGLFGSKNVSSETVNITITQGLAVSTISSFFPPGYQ
Chain of CD32a receptor (Fc gamma receptor) (P12318 36-218): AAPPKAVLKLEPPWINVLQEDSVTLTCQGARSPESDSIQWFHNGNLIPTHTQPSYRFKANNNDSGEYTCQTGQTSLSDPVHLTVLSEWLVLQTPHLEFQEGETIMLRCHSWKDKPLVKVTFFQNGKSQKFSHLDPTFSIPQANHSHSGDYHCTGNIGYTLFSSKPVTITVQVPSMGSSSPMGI

Kd [1]: 16000 nM
Kd [2]: 41000 nM
EC50 of IL-2 secretion in mixed lymphocyte reaction (MLR) [3]: 21.5 nM
binding affinity against that of B60-55-1 (log) [4]: 2 log
EC50 (C1q (Sigma, Cat #C1740)): 14.9 µg/mL
Kd [5]: 0.26 nM
Kd [6]: 0.62 nM
Kd [7]: 0.67 nM
Substance: atezolizumab (Tecentriq), Genentech Inc, Lot 3109904 (antibody)
